Reference: PMC7494283 (Cell, 2020)

B1: S2A4 mAb (IgG1) (antibody, V domains shown)
VH: EVQLVESGGGLVQPGGSLRLSCAASGFTFSSYWMNWVRQAPGKGLEWVANIKQDGSEKYYVDSVKGRFTISRDNAKNSLFLQMNSLRAEDTAVYYCARVWWLRGSFDYWGQGTLVTVSS
VL: NFMLTQPHSVSESPGKTVTISCTGSSGSIASNYVQWYQQRPGSAPTTVIYEDNQRPSGVPDRFSGSIDSSSNSASLTISGLKTEDEADYYCQSYDSSNHVVFGGGTKLTVL
B2: S2H14 mAb (IgG1) (antibody, V domains shown)
VH: not shown
VL: NFMLTQPHSVSESPGKTVTISCTRSSGSIASNYVQWYQQRPGSSPTTVIYEDNQRPSGVPDRFSGSIDSSSNSASLTISGLKTEDEADYYCQSYDSSNQVFGGGTKLTVL
B3: S304 mAb (IgG1) (antibody, V domains shown)
VH: EVQLVESGGGLVQPGGSLRLSCAASGFTFSSYDMHWVRQTTGKGLEWVSTIGTAGDTYYPDSVKGRFTISREDAKNSLYLQMNSLRAGDTAVYYCARGDSSGYYYYFDYWGQGTLLTVSS
VL: DIEMTQSPSSLSAAVGDRVTITCRASQSIGSYLNWYQQKPGKAPKLLIYAASSLQSGVPSRFSGSGSGTDFTLTISSLQPEDFAIYYCQQSYVSPTYTFGPGTKVDIK

Biological target: SARS-CoV RBD (SARS-CoV (human), isolate , UniProt P59594)
Experiment: ELISA

Q: Does B1 bind?
A: Result: no binding

Q: Does B2 bind?
A: Result: no binding

Q: Does B3 bind?
A: Result: binds
